Legend:
Experiment in all cases: stopped-flow presteady-state phosphate release, MDCC-PBP fluorescence; hyperbolic fit of initial exponential rates
Type in all cases: biochemical, Mus musculus
[1] = substrate: Nc1ncnc2c1ncn2[C@@H]1O[C@H](COP(=O)(O)OP(=O)(O)OP(=O)(O)O)[C@@H](O)[C@H]1O; details: preformed microtubule-KIF3 complex (2 μM MT, 0.5 μM dimer in syringe), 250 mM KCl in ATP syringe, 5 mM magnesium acetate, pH 7.2, 25 °C, not steady-state Km
Excerpt: stopped-flow presteady-state phosphate release, MDCC-PBP fluorescence; hyperbolic fit of initial exponential rates on KIF3AC

[2] = substrate: Nc1ncnc2c1ncn2[C@@H]1O[C@H](COP(=O)(O)OP(=O)(O)OP(=O)(O)O)[C@@H](O)[C@H]1O; details: preformed microtubule-KIF3 complex (2 μM MT, 0.5 μM dimer in syringe), 300 mM KCl in ATP syringe, 5 mM magnesium acetate, pH 7.2, 25 °C, not steady-state Km
Excerpt: stopped-flow presteady-state phosphate release, MDCC-PBP fluorescence; hyperbolic fit of initial exponential rates on KIF3AA

[3] = substrate: Nc1ncnc2c1ncn2[C@@H]1O[C@H](COP(=O)(O)OP(=O)(O)OP(=O)(O)O)[C@@H](O)[C@H]1O; details: preformed microtubule-KIF3 complex (2 μM MT, 0.5 μM dimer in syringe), 300 mM KCl in ATP syringe, 5 mM magnesium acetate, pH 7.2, 25 °C, not steady-state Km; remark: listed apart in the source
Excerpt: stopped-flow presteady-state phosphate release, MDCC-PBP fluorescence; hyperbolic fit of initial exponential rates on KIF3CC

B1: KIF3AC (Mus musculus) (protein)
chain 1: MPINKSEKPESCDNVKVVVRCRPLNEREKSMCYRQAVSVDEMRGTITVHKTDSSNEPPKTFTFDTVFGPESKQLDVYNLTARPIIDSVLEGYNGTIFAYGQTGTGKTFTMEGVRAVPGLRGVIPNSFAHIFGHIAKAEGDTRFLVRVSYLEIYNEEVRDLLGKDQTQRLEVKERPDVGVYIKDLSAYVVNNADDMDRIMTLGHKNRSVGATNMNEHSSRSHAIFTITIECSEKGVDGNMHVRMGKLHLVDLAGSERQAKTGATGQRLKEATKINLSLSTLGNVISALVDGKSTHVPYRNSKLTRLLQDSLGGNSKTMMCANIGPADYNYDETISTLRYANRAKNIKNKARINEDPKDALLRQFQKEIEELKKKL
chain 2: MASKTKASEALKVVARCRPLSRKEEAAGHEQILTMDVKLGQVTLRNPRAAPGELPKTFTFDAVYDASSKQADLYDETVRPLIDSVLQGFNGTVFAYGQTGTGKTYTMQGTWVEPELRGVIPNAFEHIFTHISRSQNQQYLVRASYLEIYQEEIRDLLSKEPGKRLELKENPETGVYIKDLSSFVTKNVKEIEHVMNLGNQARAVGSTHMNEVSSRSHAIFVITVECSERGSDGQDHIRVGKLNLVDLAGSERQNKAGPNAAGGPATQPTAGGGSGSGSASGSASSGERPKEASKINLSLSALGNVIAALAGNRSTHIPYRDSKLTRLLQDSLGGNAKTIMVATLGPASHSYDESLSTLRFANRAKNIKNKPRVNEDPKDTLLREFQEEIARLKAQL
notes: heterodimer; motor domain, neck linker and helix α7 (KIF3A Met1-Leu374, KIF3C Met1-Leu396), each fused to EB1 dimerization domain; KIF3A StrepII tag, KIF3C His8 tag, tags not cleaved; E. coli; dimer MW 98,318
Question: For B1, which K0.5 [1] is on record?
Answer: The K0.5 was 28.2 ± 1.8 µM.

B2: KIF3AA (Mus musculus) (protein)
chain: MPINKSEKPESCDNVKVVVRCRPLNEREKSMCYRQAVSVDEMRGTITVHKTDSSNEPPKTFTFDTVFGPESKQLDVYNLTARPIIDSVLEGYNGTIFAYGQTGTGKTFTMEGVRAVPGLRGVIPNSFAHIFGHIAKAEGDTRFLVRVSYLEIYNEEVRDLLGKDQTQRLEVKERPDVGVYIKDLSAYVVNNADDMDRIMTLGHKNRSVGATNMNEHSSRSHAIFTITIECSEKGVDGNMHVRMGKLHLVDLAGSERQAKTGATGQRLKEATKINLSLSTLGNVISALVDGKSTHVPYRNSKLTRLLQDSLGGNSKTMMCANIGPADYNYDETISTLRYANRAKNIKNKARINEDPKDALLRQFQKEIEELKKKL
notes: engineered homodimer; motor domain Met1-Leu374 fused to EB1 dimerization domain; His8 tag not cleaved; E. coli; dimer MW 97,004
Question: For B2, which K0.5 [2] is on record?
Answer: The K0.5 was 30.9 ± 4.7 µM.

B3: KIF3CC (Mus musculus) (protein)
chain: MASKTKASEALKVVARCRPLSRKEEAAGHEQILTMDVKLGQVTLRNPRAAPGELPKTFTFDAVYDASSKQADLYDETVRPLIDSVLQGFNGTVFAYGQTGTGKTYTMQGTWVEPELRGVIPNAFEHIFTHISRSQNQQYLVRASYLEIYQEEIRDLLSKEPGKRLELKENPETGVYIKDLSSFVTKNVKEIEHVMNLGNQARAVGSTHMNEVSSRSHAIFVITVECSERGSDGQDHIRVGKLNLVDLAGSERQNKAGPNAAGGPATQPTAGGGSGSGSASGSASSGERPKEASKINLSLSALGNVIAALAGNRSTHIPYRDSKLTRLLQDSLGGNAKTIMVATLGPASHSYDESLSTLRFANRAKNIKNKPRVNEDPKDTLLREFQEEIARLKAQL
notes: engineered homodimer; motor domain, neck linker and helix α7 (Met1-Leu396) fused to EB1 dimerization domain; His8 tag not cleaved; E. coli; dimer MW 99,518 (borders printed for the KIF3C chain of KIF3AC; mass agrees)
Question: How did the K0.5 [3] turn out when B3 was run?
Answer: The K0.5 was 13.9 ± 3.5 µM.
